Here are results for 9 molecules from patent US20240245805A1 (Orna Therapeutics, Inc., priority 2020, published 2024).

The labels stand for the following.
B1: Miniopterus schreibersii picornavirus 1 (nucleic acid)
DNA: GTTGTCGACCCGTTGCTTGGTTTAAGCATGAGGTGGATTCCCCCGATTATGTCTACCCGTTACTATGGCGGGCGGTCGTTTCAGGGTGTTTCTACTGAGGACTGCACCAAGTCTTTATCTTTTATTCTCAGATCTCCGGCTGTTTGACGCTTGTAGGACAGCAGGACTATTTTCTCTTAATCTTTTTCTACCCACTAGGGTCCTATCCTAGTGGAGGGAGGGTGCCACCCCTTCTCTCTTTAGAGAGTGCGCCTGGCGGTCTTTCCGTCTCTGGAAAAAGGAGCACATGGCATGCTACAATTGGCACAAGAAAACAAGCTTTGCGGATTCTTTCTTTGTACTAGAGGAAGCTGTAGCGACCCTGTATGGCGAGCGGACTCCCCTCTCGGCGACGAGAGCCTCTCGGGCCAAAAGCCAAGTGTTAATAGCACCCATACAGGCGGCAGTACCCCACTGCCCTTTCTCAACATACAATGACTGATGAACCACTGTTGGTTTTTCTGACACCTTTGTAGTAGGATTCCAAGGAATGTCCTGAAGGTACCCTGTTAGCTTACGCGCAGGATCTGATCAGGAGTCTCTTTACAGTGCTGTACACTGTGCAAGGGATTAAAAATTGTTTGAGGAATCCCCGAGATAGTGGTCTATCTCTTCCTATTTTGTTTTACAGACACG
modifications: lipid formulation; source: /note="Description of Unknown: Miniopterus schreibersii picornavirus 1 sequence"
B2: Harrier picornavirus 1 (nucleic acid)
DNA: GATGTGTGACGGTGTAATTACTTTCCGGATCCCACTTTCCTATTATAACTCTTTCATCCCAAGGTTAGGGAAAGAACCTGGCTCGGTACCACCAGACCCTCCGCCACGCTAGTGGACTCTCCGGAGATAACGGTACCCCCTTTGTAGTCACCTGTGCTGGTGAAGAACCACCTAGTATTGCTTGGGTGCGTGCCGCCTAGCTTCCATTTCTTCTGGAGCACTGTGCAATGAGGTTTCCCCACTTGGTAACAAGTGCCTCAGGTCCCGCAAGGATACTGTGGGGTGGTGTGACCGCAGGGAGCTGTCTCCACGGCTCCTCTAATGTTACGCCGCTATCCACAGGCCAGTGCGTGTCATCGATCCCGGATGACAGAGCTAGTATTGCGAACCCCCAAGTAAGAAAAGTGGCTAGTAACCTGATAGCTGGTGAAGAGGGTGGGTCAGTTGAGTAGATGCCCTAGAGGTACCCGAAAGGATCTGACTAGGGACCCGTGACTATACATTAGGTAAACCGGGTATAAAAACCATGAAAAACTGACCACTTTTCTTTTAACCTCTTCTTTCTTTTTATGTGTGTTAAGTGTTTTGAGTTTGGACTGTACCTTGCCCGCCTTTCTTGGATTTTCTCTATCGCTCTTCTTACACCTACTGTTATCAAGGCACTCTTTAGAGATA
modifications: source: /note="Description of Unknown: Harrier picornavirus 1 sequence"
B3: Kashmir bee virus: "an IRES is an IRES sequence of ... Kashmir bee virus" (nucleic acid)
DNA: TACGTACAATTTTGACGCTTCGTTCATGCAACAATGAACTCACATGTGGCGCTCGGTAGTAACCAGAGGGGCGTCATTCCCCCGTATGGAGTGGAGAATATAAGCTACCGACTCGAGCTGTAGAATAATTCAGCAACTTATAACGAACACGAATTTTAGTCGACGAAACCATTTTAGCCTTTAATTCTATGATTTGATTATAATGATAAACAGCTCATGTAACTGTCTAAACTACATAAATACAACTGGATTACGAACCTTTAAGTAACTATCTTAGATGAAGTCTAGTAGTCTCCCAATATTTCCGTGAAAAGAATGAGGGACGAGATAGCTCTATTTAAAGACGTGAGGCTTTAAATTCTGATAAATACATTACCTGAGAATTCCTCCTTTAGGAGTTAGAATTTGAAAAGATTAGTACCTATACTTAATAGAATTTAAATATGTTAATAATGCTGAAGACAAGTATTTCGATTATTAACCTCTATATTTCTATATAAAGTATCTGTGAGTCTCAGTGGACATCACAGTAAGGTCGCAGTTAACTTGTAATCTTTTCATTCCTGTGTCGGAGCAGTGGTAATGGAGCCGGACGATTTCGCCAAAAC
modifications: Kashmir bee virus
B4: Hubei picorna-like virus 2 (nucleic acid)
DNA: AGCAACTTCTTTCTGAAAACTAGCTAGAGTTCGACGATCTCTCTGGCTAATGACAAATAACCAATCAAAAAGTCAAATGTTCATGTATATATATATTTAGTAGTGACCTTTATTTAGAAAAACTTTAGATGATTTATCGTCAAGTTGCCCTTTGTGAAGCGATCAGCTTTTTATATCGTTTCATTTTTGTATACGTCTTAATTGACGTTGTAAGTACGTTTTGCATACCTCACATTGAGGATAGTATCGTTTCCTGACTAAGAAGTTAAACTAGTCTACCAATAGCAACCATATAGGATATAGCTTTGTTTTTAACAAGGTTTAATCTGATCTTATGCTCTTGCTTACGGTGTTTTATGTATAGAAAAGTTTTTATAAAAACTACATAATTGTCAAAAGAAAAAGCGTTACGTACTGACGCATTTATGTTCACAGTGTGACACAAACCTTCTATATTTTGATTGTAAAATAGGCTTTGCCTGACCATTTATCAAATACAAACTGTTTCAAACGCCTCTCCGAGCCATATTGGCCGACGCGAATCGACATAACAGGGTGAGTTTACAGCTGCAGTTGCAGCCGAGGATCCACTTATTTGAGAGAGAATTACTCTTAACGAAATTTTGAAGTCACTTCTACACAGTTAAGTCTGAGTAGGCGTTATCCAAACGTAAA
modifications: source: /note="Description of Unknown: Hubei picorna-like virus 2 sequence"
B5: Jingmen picorna-like virus (nucleic acid)
DNA: TGTGTTTTTGTCAAGATAATTGTTCTGTGATTAACAGTGATTGTGGTTCGTGTAATGCGACGCAGTCAAATGCTAGTTTTGATGAAGTGTATGAGAGAGTGGAAAACTTATCTCATAAGAAGATTGAAGAGTGTGTAGATCAGGCTATTGATCGAGCTTCTAAGCTTCGTGATTACAAGCTTAATGTTCACAATGGCTCCCGACGGGAATCATCTGATCCTCTCTTTATTTCGCCCCATTCGTTGTTATCGCTTGGGGTATCTAAGTTTGTTGCGTTTGAGCAGCATCACAGTTTCGCTTCAGTTGAGTCTCTGAAGTTGCTTGCTCTGTCT
modifications: source: /note="Description of Unknown: Jingmen picorna-like virus sequence"
B6: Hubei sobemo-like virus 3 (nucleic acid)
DNA: GAGATGTTTGCGTGGGCCGTTGCGCTGCGGGCGGCCCACCTCCCTACGGGGACCGTGAGACACCGCTGGGGAAGGCCCCCACCCCCGGCCAAGGGGATCCTGCCGAGAGGCAGGAGAAAGAGGCCCAGCCCTCTGGGGCGCCTTTAGGGGTGCCTGGGAGGGAAGTACCCGAGCCGGGCGGCCGGTCGGGTGCGGCTGTGCAGTTCGAGGCTAACCGTAAGGAAGGCCTGAGCTGCCTCGGCTTGTCGGAAAGGAAGACGAAGGCACTTATCAAGGCTTTCAGGAAGCAGGAGCGCAATTACAGCGCGCGCCGTGCGGCCTGGATTAACCGCATTTGGCCG
modifications: source: /note="Description of Unknown: Hubei sobemo-like virus 3 sequence"
B7: Hubei tombus-like virus 9 (nucleic acid)
DNA: GGACCATCCAGGCAGGTGTAGGCTAGTACCCTCACCTGACCTGTCGCGATGTTTGGCTTTGTGAGGCTTGTGGGAGGATCCCTTGGCCCATGCATTGCTGCTGTCATCGTGAAAAATGTTGTATGCTCGCACCTGGCGTGGAGGAAACGGCATTTGACGGATGCTAAGGAGGATTTGAAGGTCCTCAACTCCCATGCCTTATTACAAGTCCCCTTTCCTTCAAGCTTCGAGCCCACGTCTGTGACGAGCAGAGGTGAGGTTGGAGTCAAGAGGAGTCCTATTCAAGCTGTTCGCAGCAAGAACCATAAAACTTTCATTGCTCAATGGGCAAGAGCGGCTAAGGCTCGGTTCTCGTTTGCACGACAGTGTGAGCGGAGCCCTGTAAATGTCGCGGCCCTTCATCGGTGGTTTGCATCGGAGTTTAAGAAAATTGGCATGAACTTGCTCCAGGTTTCGTACGTGATCGATGAGGTTGTTGAACTTAGTTTGGAACCAACGTATGAGCGTATGGTGTCCGAAACTAAGAAGCAATTCCGTCATCGGGCACGTATGGAATACTACAACGAGAAAAAATGCCTTGAAAAGATCCACTAGGAACGC
modifications: source: /note="Description of Unknown: Hubei tombus-like virus 9 sequence"
B8: Hubei tombus-like virus 32 (nucleic acid)
DNA: TTCGGGTTTACCCGCGTAAGCGGCCACACTGACTGGTTGTCGGTGTTGAATTTGTATACCAGATGAGGAGACGTTACCACCGTCTCGGCAGTGCTACGTCTGGGAAAGGACTGTGATAGTGGACAGTCCTACCGTCTTTAGATACATTGCGTTGTGTATAGCCCGGGAGGGATTAACTAATAGCAACGCAATGCACACGGCGGTTCGGATTTGCTTGACTGATGGAAAGACATCTAAGTTCTAATTGAACC
modifications: source: /note="Description of Unknown: Hubei tombus-like virus 32 sequence"
B9: Hepacivirus P (nucleic acid, listed as Hepacivirus sp.)
DNA: ACATGGGGGGGGGCTGACAGTGAGTACACTGTGCCAAGCAGGTGCTACGCTATGCCTAGGTGCTGCTGTAGGCCAAGGACATGTCCCAGTCATCCCAGGTGAGGGGGGGGGTTCCCCTCACCGCTGCCACTGCCTGATAGGGTCCTGCCGGAGGGTCTCGGTGTCCGGCTGTAC

This data set relates to HEK293 cells. The format is cell-based, human. The note with it: circular RNA encoding Gluc with the listed IRES (UTR truncated to 675 nt) transfected into HEK293 cells; supernatant after 24 hours.
In the case of B1, the “Expression (luminescence from secreted Gluc protein)” value (“Expression” below) amounted to 6.05E+06.

Turning to B2, the “Expression” value worked out at 1.47E+05.

As for B3, the “Expression” value is on record as 1.65E+05. With B4 the figure was 1.95E+05; with B5, 9.32E+04; with B6, 1.17E+05. With B7 the figure was 9.28E+04. Consider B8, for which the “Expression” value turned out to be 9.23E+04.

For the molecule B9, the “Expression” value was 6.04E+05.
